Source: paper PMC8085991

Tested on: Nc1nc2c(ncn2[C@@H]2O[C@H](COP(=O)(O)OP(=O)(O)OP(=O)(O)O)[C@@H](O)[C@H]2O)c(=O)[nH]1
Assay: purified protein
Conditions: 59 nM GST-FlhFBb; GTP 0-100 μM; room temperature

rFlhFBb (BB0270, GST-FlhFBb) (Borreliella burgdorferi B31)
Km: 10.71 ± 2.08 µM | Vmax: 113 µmol/min | kcat: 0.0318 ± 0.00133 s⁻¹ | kcat/Km: 2970 M⁻¹ s⁻¹
